Test results: patent US20160046725A1 (PIERRE FABRE MEDICAMENT, published 2016)

T1: recombinant human Mer-Fc protein (R and D Systems, cat N° 891-MR) (human, UniProt Q12866 26-499, limits assumed)
T1 construct: Bought construct; also called rhMer-Fc; rh-Mer-Fc; not shown: Fc portion of the bought fusion
T1 sequence (looked up): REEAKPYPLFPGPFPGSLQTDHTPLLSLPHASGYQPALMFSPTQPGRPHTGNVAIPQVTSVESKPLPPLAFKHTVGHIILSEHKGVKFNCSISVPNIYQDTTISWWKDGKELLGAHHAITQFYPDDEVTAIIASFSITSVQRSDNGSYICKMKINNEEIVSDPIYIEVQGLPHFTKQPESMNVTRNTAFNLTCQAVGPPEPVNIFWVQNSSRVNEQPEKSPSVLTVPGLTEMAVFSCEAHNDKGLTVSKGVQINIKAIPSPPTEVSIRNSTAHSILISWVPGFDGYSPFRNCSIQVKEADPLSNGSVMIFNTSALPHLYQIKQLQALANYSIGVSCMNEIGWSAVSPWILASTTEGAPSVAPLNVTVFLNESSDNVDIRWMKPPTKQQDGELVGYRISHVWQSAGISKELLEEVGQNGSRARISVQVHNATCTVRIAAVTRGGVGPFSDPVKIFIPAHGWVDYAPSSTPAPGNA

T2: recombinant human Dtk-Fc protein (R and D Systems, cat N° 859-DK) (human, UniProt Q06418 41-428)
T2 construct: Bought construct; also called rhDtk-Fc; rhDtk; not shown: Fc portion of the bought fusion
T2 sequence (looked up): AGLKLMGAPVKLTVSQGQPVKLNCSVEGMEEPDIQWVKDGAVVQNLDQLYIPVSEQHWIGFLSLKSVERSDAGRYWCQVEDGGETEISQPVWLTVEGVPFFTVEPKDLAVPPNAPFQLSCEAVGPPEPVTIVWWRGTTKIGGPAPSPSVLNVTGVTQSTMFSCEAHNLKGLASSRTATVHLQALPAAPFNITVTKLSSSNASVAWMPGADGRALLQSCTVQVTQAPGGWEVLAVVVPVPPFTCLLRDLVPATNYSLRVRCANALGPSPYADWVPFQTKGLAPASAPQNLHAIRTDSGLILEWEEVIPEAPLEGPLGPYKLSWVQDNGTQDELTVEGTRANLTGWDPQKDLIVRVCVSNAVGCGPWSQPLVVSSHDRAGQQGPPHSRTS

T3: human Axl receptor on human tumor cells (human, UniProt P30530 26-894)
T3 sequence: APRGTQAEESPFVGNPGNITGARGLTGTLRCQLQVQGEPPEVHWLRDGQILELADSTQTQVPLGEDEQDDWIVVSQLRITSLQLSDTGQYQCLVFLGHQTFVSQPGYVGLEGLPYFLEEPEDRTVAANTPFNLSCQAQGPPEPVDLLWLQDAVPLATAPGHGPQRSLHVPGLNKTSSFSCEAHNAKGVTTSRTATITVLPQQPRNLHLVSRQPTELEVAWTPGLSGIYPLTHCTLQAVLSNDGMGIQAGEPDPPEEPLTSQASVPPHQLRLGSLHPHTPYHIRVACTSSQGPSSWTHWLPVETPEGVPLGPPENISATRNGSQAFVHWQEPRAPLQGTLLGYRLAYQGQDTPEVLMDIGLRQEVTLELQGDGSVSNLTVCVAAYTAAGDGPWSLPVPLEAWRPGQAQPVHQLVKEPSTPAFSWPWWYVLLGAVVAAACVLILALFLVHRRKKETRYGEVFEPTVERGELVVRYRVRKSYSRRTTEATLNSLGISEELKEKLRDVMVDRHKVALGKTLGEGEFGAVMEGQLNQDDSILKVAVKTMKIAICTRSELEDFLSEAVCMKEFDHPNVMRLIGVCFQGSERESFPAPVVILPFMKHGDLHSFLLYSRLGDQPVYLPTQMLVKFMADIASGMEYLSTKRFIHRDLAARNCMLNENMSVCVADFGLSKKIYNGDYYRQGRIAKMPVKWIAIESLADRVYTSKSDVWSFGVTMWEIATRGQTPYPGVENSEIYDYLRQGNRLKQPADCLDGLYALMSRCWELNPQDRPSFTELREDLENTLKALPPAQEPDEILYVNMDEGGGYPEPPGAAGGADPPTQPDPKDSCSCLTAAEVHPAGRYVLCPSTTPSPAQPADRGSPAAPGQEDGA


Assays:
[1] = target: T1, recombinant human Mer-Fc protein (R and …); assay: ELISA on coated protein
Method: (§1) Briefly, the recombinant human Axl-Fc (R and D systems, cat N° 154AL/CF), rhDtk (R and D Systems, cat N° 859-DK) or rh-Mer-Fc (R and D Systems, cat N° 891-MR) proteins were coated overnight at 4° C. to Immulon II 96-well plates and, after a 1 h blocking step with a 0.5% gelatine solution, 110D7, 1003A2, 1024G11 purified antibodies were added, respectively, for an additional 1 h at 37° C. at starting concentration of 5 μg/ml (3.33 10⁻⁸M). Then ½ serial dilutions were done over 12 columns. Then plates were washed and a goat anti-mouse (Jackson) specific IgG-HRP was added for 1 h at 37° C. Reaction development was performed using the TMB substrate solution. The commercial anti-Axl Mab 154 antibody is also used in parallel (data not shown). Coating controls are performed in presence of a goat anti-human IgG Fc polyclonal serum labelled with HRP (Jackson, ref 109-035-098) and/or in presence of a HRP-coupled anti-Histidine antibody (R and D Systems, ref: MAB050H). No non specific binding is observed in absence of primary antibody (diluant). Results for the 110D7 are represented in FIGS. 2A, 2B and 2C, respectively. Results for the 1003A2 are represented in FIGS. 2D, 2E and 2F, respectively. Results for the 1024G11 are represented in FIGS. 2G, 2H and 2I, respectively.

[2] = target: T2, recombinant human Dtk-Fc protein (R and …); assay: ELISA on coated protein
Method: as §1

[3] = target: T3, human Axl receptor on human tumor cells; assay: cell-based or functional assay
[4] = target: T3, human Axl receptor on human tumor cells; assay: cell-based or functional assay; remark: listed apart in the source

Binder	binding result [1]	binding result [2]	Axl down-regulation at 4 h (western blot, SN12C) [3] [%]	Axl down-regulation at 24 h (western blot, SN12C) [3] [%]	maximal cytotoxic effect on SN12C cells (Mab-Zap assay) [3] [%]	% remaining Axl [4] [%]	Δ (MFI No Ab 24 h - MFI Ab 24 h) [4] [MFI]
110D7 anti-Axl monoclonal antibody (antibody, V domains shown, Murine monoclonal antibody purified from a hybridoma; a mIgG1 isotype control (9G4) is used beside it; also called m110D7; monoclonal antibody 110D7 derived from the hybridoma I-3959) VH: EVKLVESGGGLVQPGGSLKLSCATSGFTFSDYYMYWVRQTPEKRLEWVAYISNGGGSTYYPDTVKGRFTMSRDNAKNTLYLQMSRLKSEDTAMYYCARLSFYAMDYWGQGTSVTVSS VL: DIVMTQSHKFMSTSVGDRVSITCKASQDVTTAVAWYQQKPGQSPKLLIYWASTRHTGVPDRFTGSGSGTDYTLTISSVQAEDLALYYCQQHYRIPFTFGSGTKLEIK	no binding	no binding	50	84	~49	29.8	588
1003A2 anti-Axl monoclonal antibody (antibody, V domains shown, Murine monoclonal antibody purified from a hybridoma; a mIgG1 isotype control (9G4) is used beside it; also called monoclonal antibody 1003A2 derived from the hybridoma I-4499) VH: EVKLVESGGGLVQPGGSLKLSCAASGFTFNSYSMSWVRQTPEKRLEWVAYISNGGGRTYYPDTIKGRFTLSRDNDRNTLYLQMSSLKSEDTAMYYCARGTTESYYALDYWGQGTSVTVSS VL: DIVMTQSHKFMSTSLGDRISITCKASQDVITAVAWYQQKPGQSPKLLIYWASTRHTGVPDRFTGSGSGTDYNLTISSVQAEDLALYYCQQHFSTPLTFGAGTKLELK	no binding	no binding	66	89	~37	35	505
1024G11 anti-Axl monoclonal antibody (antibody, V domains shown, Murine monoclonal antibody purified from a hybridoma; a mIgG1 isotype control (9G4) is used beside it; also called monoclonal antibody 1024G11 derived from the hybridoma I-4501) VH: EVKLVESGGGLVQPGGSLNLSCAASGFTFSSYSMSWVRQTPEKRLEWVAFISNGGGRTYYPDTVKGRFTFSRDNARNTLYLQMSSLNSEDTAMYFCARGTTESYYAMDYWGQGTSVTVSS VL: DIVMTQSHKFMSTSVGDRVSITCKASQDVITAVAWYQQKPGQSPKLLIYWASTRHTGVPDRFTGSGSGTDYTLTISSVQAEDLALYFCQQHLSTPLTFGAGTKLELK	no binding	no binding	68	85	~40	45.5	478
